# Laboratory results: patent US20230416798A1 (MBRACE THERAPEUTICS, published 2023)
# B1: anti-GRP78 antibody clone F6 (antibody, IgG1, V domains shown)
# VH: QVQLQQSGPGLVKPPQTLSLTCAISGDSVSSNSAAWNWIRQSPSRGLEWLGRTYYRSKWYNDYAVSVKSRITINPDTSKNQFSLQLNSVTPEDTAVYYCARDPYYYDSSGYYYFDAFDIWGQGTMVTVSS
# VL: SYELTQPHSVSVAPGQTARITCGGDNIGSKSVHWYQQRPGQAPVLVVYDDSDRPSGIPERFSGSNSENTATLTISGVEAGDEADYYCQVWDSTSHHVVFGGGTKLTVL
# notes: Fully human mAb formatted as full-length IgG1; also called F6 mAb; Anti-GRP78 (F6)
# B2: anti-GRP78 antibody clone B4 (antibody, IgG1, V domains shown)
# VH: QVRLQESGPGLVKPSQTLSLTCTVSGGSISSGGYYWSWIRQHPGKGLEWIGYIYYSGSTYYNPSLESRVTISVDTSKNQFSLKLSSVTAADTAVYYCARYSSIDAFEIWGQGTMVTVSS
# VL: SYVLTQPPSVSVAPGKTATITCGGDDIGSKSVHWYQQKPGQAPVLVVYDDGDRPSGIPERFSGSNSGNTATLAISRVEAGDEADYYCQVWDSSSDQYVFGSGTKLTVL
# notes: Fully human mAb formatted as full-length IgG1; also called B4 mAb
# Tests used:
# Test in all cases: alanine scan, high-throughput flow cytometry; criterion for major residues
# [1] = molecular target: T1, GRP78 alanine scan variant at R261 (human, UniProt P11021 19-654)
# T1 construct: Member of the alanine scan library of GRP78
# Description: (§1) To characterize the binding properties of the antibodies described in Example 1 for GRP78, epitope mapping analysis was carried out by alanine scan mutagenesis. An alanine scan library of GRP78 was constructed. Each anti-GRP78 antibody was then screened for binding to each individual GRP78 variant, allowing identification of the target protein residues involved in antibody binding.
# (§2) Binding of each test antibody to each GRP78 variant in the alanine scanning library was determined by high-throughput flow cytometry under high stringency conditions (e.g., increased pH, increased salinity, increased temperature and/or increased wash time). Also included in the experiment was a commercially-available monoclonal antibody, 1H11-1H7, which was verified to bind to WT GFR78 on cells and thus determined to be a suitable positive control under these conditions (Thermo Fisher Scientific, Waltham, MA). Antibody binding to each of the GRP78 variant as measured by the fluorescence signal (raw fluorescence data minus the background), was normalized to its binding to the wildtype (WT) GRP78. For each GRP78 variant, such normalized binding to the test antibodies was plotted relative to that to the control antibody.
# [2] = molecular target: T2, GRP78 alanine scan variant at R279 (human, UniProt P11021 19-654)
# T2 construct: Member of the alanine scan library of GRP78
# Description: as §1, §2
# [3] = molecular target: T3, GRP78 alanine scan variant at E329 (human, UniProt P11021 19-654)
# T3 construct: Member of the alanine scan library of GRP78
# Description: as §1, §2
# [4] = molecular target: T4, GRP78 alanine scan variant at H265 (human, UniProt P11021 19-654)
# T4 construct: Member of the alanine scan library of GRP78
# Description: as §1, §2
# T1 sequence (P11021 other isoform, or with tags, fused parts or gaps mutant limits assumed): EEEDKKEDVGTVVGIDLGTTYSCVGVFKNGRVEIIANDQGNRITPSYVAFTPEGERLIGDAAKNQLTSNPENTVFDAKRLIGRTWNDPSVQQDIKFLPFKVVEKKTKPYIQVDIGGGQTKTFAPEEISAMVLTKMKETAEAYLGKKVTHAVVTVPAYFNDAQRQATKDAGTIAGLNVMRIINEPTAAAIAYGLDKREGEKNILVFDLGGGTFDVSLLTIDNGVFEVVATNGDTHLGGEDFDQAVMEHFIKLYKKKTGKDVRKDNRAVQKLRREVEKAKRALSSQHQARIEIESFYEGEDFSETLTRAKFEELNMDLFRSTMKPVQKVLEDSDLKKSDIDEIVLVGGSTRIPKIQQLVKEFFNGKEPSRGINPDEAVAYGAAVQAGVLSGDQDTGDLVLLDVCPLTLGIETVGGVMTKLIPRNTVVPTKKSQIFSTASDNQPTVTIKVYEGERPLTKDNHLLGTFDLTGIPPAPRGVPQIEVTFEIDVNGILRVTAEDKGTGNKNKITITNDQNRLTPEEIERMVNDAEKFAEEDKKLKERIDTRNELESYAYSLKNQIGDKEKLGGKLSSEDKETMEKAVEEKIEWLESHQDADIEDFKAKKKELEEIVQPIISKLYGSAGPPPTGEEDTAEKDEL
# T4 sequence (P11021 other isoform, or with tags, fused parts or gaps mutant limits assumed): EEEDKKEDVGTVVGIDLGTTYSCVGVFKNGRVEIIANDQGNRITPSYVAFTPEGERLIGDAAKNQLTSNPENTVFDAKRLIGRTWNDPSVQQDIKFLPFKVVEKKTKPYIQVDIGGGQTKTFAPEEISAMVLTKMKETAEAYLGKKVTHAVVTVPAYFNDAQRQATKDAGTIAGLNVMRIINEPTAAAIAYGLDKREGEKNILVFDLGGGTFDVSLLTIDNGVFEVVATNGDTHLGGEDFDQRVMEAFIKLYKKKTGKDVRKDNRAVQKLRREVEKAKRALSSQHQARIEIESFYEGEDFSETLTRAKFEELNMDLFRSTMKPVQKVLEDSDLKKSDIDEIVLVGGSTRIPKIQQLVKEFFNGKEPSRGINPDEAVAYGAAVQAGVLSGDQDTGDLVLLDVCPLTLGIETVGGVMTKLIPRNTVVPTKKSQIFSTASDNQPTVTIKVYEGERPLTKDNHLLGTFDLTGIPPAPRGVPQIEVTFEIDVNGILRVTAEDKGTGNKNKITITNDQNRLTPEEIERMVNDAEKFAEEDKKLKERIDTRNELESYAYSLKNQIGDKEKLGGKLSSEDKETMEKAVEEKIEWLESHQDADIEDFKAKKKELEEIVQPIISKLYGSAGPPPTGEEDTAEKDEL
# T2 sequence (P11021 other isoform, or with tags, fused parts or gaps mutant limits assumed): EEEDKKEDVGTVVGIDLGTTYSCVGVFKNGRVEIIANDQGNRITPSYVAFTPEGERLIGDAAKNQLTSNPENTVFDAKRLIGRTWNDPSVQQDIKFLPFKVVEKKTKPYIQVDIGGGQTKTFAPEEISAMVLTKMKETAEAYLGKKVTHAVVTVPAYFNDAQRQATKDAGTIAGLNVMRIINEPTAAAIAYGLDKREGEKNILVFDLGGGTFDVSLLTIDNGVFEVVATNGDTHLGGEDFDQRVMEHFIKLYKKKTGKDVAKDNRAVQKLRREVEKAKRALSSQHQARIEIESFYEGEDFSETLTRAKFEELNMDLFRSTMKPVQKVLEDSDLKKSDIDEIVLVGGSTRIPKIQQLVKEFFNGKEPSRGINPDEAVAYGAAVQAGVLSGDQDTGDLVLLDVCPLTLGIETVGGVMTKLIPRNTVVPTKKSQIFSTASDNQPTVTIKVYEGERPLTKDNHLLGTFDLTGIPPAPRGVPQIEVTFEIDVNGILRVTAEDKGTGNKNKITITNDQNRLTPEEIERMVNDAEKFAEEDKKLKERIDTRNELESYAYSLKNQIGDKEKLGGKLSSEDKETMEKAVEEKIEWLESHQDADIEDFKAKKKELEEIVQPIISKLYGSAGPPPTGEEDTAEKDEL
# T3 sequence (P11021 other isoform, or with tags, fused parts or gaps mutant limits assumed): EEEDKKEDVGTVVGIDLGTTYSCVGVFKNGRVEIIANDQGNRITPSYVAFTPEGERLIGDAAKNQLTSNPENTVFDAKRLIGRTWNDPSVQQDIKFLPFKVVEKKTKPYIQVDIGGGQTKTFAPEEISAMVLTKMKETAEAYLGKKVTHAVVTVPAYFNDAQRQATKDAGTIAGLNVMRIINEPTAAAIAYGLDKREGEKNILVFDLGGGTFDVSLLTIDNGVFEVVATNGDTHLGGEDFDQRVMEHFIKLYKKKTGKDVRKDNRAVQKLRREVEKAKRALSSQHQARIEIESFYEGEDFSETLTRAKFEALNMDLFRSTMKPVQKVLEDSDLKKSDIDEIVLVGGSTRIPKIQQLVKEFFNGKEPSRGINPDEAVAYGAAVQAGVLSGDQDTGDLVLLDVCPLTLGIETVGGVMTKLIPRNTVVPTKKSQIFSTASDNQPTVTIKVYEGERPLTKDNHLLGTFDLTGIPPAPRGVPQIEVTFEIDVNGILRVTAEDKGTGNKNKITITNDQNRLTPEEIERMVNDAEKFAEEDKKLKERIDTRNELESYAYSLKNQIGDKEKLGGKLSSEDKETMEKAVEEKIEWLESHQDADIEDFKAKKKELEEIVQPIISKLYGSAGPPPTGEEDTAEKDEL
Binder,binding normalized to wildtype (WT) GRP78 [1],binding normalized to wildtype (WT) GRP78 [2],binding normalized to wildtype (WT) GRP78 [3],binding normalized to wildtype (WT) GRP78 [4]
B1,< 20%,< 20%,,
B2,< 20%,,< 20%,< 20%
